According to publication PMC2766537:

Molecular target: glycosylphosphatidylinositol-anchored avidin test probe (avidin/CD14 fusion) (chicken | human) (UniProt P02701)

stoichiometry N: 4
Substance: glycosylphosphatidylinositol-anchored avidin test probe (avidin/CD14 fusion) (from UniProt P02701 25-152; P08571 318-375)
